Experimental data as given in patent US20210301029A1 (LYVGEN BIOPHARMA, published 2021).

How the values were obtained:
[1] = molecular target: T1, human FcγRIIB (human, UniProt P31994 43-310); experiment: FACS on CHO cells expressing human FcγRIIB (MFI)
T1 construct: whole, on cells; also called CD32b; FcγR2B
T1 sequence (looked up): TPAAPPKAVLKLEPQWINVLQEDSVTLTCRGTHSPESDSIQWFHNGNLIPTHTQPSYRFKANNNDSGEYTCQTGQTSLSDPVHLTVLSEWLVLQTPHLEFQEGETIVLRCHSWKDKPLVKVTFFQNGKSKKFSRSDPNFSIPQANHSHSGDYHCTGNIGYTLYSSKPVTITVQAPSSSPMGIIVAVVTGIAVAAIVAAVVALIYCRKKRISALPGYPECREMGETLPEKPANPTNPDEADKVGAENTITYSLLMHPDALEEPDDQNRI
Procedure: (§1) For FACS analysis of the IgG mutants' binding to different FcγRs, FcγR overexpressing CHO cells were harvested using trypsin-EDTA and were suspended in cold staining buffer (3% BSA in PBS). Test IgG mutants, which were diluted in staining buffer, were added into the cells. The mixture was incubated at 4° C. for 2 hours, and then washed twice with cold staining buffer and re-suspended in PE-labeled anti-human IgG followed by incubation at 4° C. for 2 hours. The mixture was washed twice with staining buffer and re-suspended in 2% PFA in PBS for FACS.

[2] = molecular target: T2, human FcγRIII (human, UniProt P08637 17-254); experiment: FACS on CHO cells expressing human FcγRIIIA (MFI)
T2 construct: whole, on cells; also called FcγRIIIA; CD16a
Procedure: as §1

[3] = molecular target: T3, human FcγRI (human, UniProt P12314 16-374); experiment: FACS on CHO cells expressing human FcγRI (MFI)
T3 construct: whole, on cells; also called CD64
Procedure: as §1

T2 sequence (P08637 17-254): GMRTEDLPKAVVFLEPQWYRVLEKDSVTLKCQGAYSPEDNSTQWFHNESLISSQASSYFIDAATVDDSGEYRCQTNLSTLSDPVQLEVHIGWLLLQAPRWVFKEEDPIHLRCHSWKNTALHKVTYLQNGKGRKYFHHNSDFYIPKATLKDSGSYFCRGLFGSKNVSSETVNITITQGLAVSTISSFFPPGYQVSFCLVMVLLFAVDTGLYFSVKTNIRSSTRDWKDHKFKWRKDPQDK
T3 sequence (P12314 16-374): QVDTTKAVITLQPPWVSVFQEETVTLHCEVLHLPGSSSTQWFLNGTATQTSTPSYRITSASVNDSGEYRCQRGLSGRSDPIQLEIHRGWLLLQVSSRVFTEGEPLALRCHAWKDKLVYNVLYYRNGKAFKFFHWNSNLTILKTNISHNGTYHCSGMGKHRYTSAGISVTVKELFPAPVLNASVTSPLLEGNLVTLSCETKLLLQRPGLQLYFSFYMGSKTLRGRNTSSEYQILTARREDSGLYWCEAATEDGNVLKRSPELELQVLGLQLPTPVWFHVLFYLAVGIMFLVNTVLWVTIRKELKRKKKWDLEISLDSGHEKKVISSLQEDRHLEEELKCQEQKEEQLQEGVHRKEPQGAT

binding result [1] | binding result [2] | binding result [3] | Binder
no binding (tested: 30 µg/mL) | no binding (tested: 30 µg/mL) | no binding (tested: 30 µg/mL) | 383-huIgG2m1 (antibody) heavy: not shown light: DIQMTQSPSSVSASVGDRVTITCRASQGIYSWLAWYQQKPGKAPNLLIYTASTLQSGVPSRFSGSGSGTDFTLTISSLQPEDFATYYCQQANIFPLTFGGGTKVEIKRTVAAPSVFIFPPSDEQLKSGTASVVCLLNNFYPREAKVQWKVDNALQSGNSQESVTEQDSKDSTYSLSSTLTLSKADYEKHKVYACEVTHQGLSSPVTKSFNRGEC
binds | no binding (tested: 30 µg/mL) | no binding (tested: 30 µg/mL) | 383-huIgG2m20 (antibody, also called 383-G2m20; 383-IghuG2m20) heavy: not shown light: DIQMTQSPSSVSASVGDRVTITCRASQGIYSWLAWYQQKPGKAPNLLIYTASTLQSGVPSRFSGSGSGTDFTLTISSLQPEDFATYYCQQANIFPLTFGGGTKVEIKRTVAAPSVFIFPPSDEQLKSGTASVVCLLNNFYPREAKVQWKVDNALQSGNSQESVTEQDSKDSTYSLSSTLTLSKADYEKHKVYACEVTHQGLSSPVTKSFNRGEC
binds | no binding (tested: 30 µg/mL) | no binding (tested: 30 µg/mL) | 383-huIgG2m44 (antibody) heavy: not shown light: DIQMTQSPSSVSASVGDRVTITCRASQGIYSWLAWYQQKPGKAPNLLIYTASTLQSGVPSRFSGSGSGTDFTLTISSLQPEDFATYYCQQANIFPLTFGGGTKVEIKRTVAAPSVFIFPPSDEQLKSGTASVVCLLNNFYPREAKVQWKVDNALQSGNSQESVTEQDSKDSTYSLSSTLTLSKADYEKHKVYACEVTHQGLSSPVTKSFNRGEC
no binding (tested: 30 µg/mL) | no binding (tested: 30 µg/mL) | no binding (tested: 30 µg/mL) | 383-huIgG2m40 (antibody, also called 383-G2m40; 383-IghuG2m40) heavy: not shown light: DIQMTQSPSSVSASVGDRVTITCRASQGIYSWLAWYQQKPGKAPNLLIYTASTLQSGVPSRFSGSGSGTDFTLTISSLQPEDFATYYCQQANIFPLTFGGGTKVEIKRTVAAPSVFIFPPSDEQLKSGTASVVCLLNNFYPREAKVQWKVDNALQSGNSQESVTEQDSKDSTYSLSSTLTLSKADYEKHKVYACEVTHQGLSSPVTKSFNRGEC
no binding (tested: 30 µg/mL) | no binding (tested: 30 µg/mL) | no binding (tested: 30 µg/mL) | 383-huIgG1mAA (antibody) heavy: not shown light: DIQMTQSPSSVSASVGDRVTITCRASQGIYSWLAWYQQKPGKAPNLLIYTASTLQSGVPSRFSGSGSGTDFTLTISSLQPEDFATYYCQQANIFPLTFGGGTKVEIKRTVAAPSVFIFPPSDEQLKSGTASVVCLLNNFYPREAKVQWKVDNALQSGNSQESVTEQDSKDSTYSLSSTLTLSKADYEKHKVYACEVTHQGLSSPVTKSFNRGEC
no binding (tested: 30 µg/mL) | no binding (tested: 30 µg/mL) | no binding (tested: 30 µg/mL) | 383-huIgG4m41 (antibody) heavy: not shown light: DIQMTQSPSSVSASVGDRVTITCRASQGIYSWLAWYQQKPGKAPNLLIYTASTLQSGVPSRFSGSGSGTDFTLTISSLQPEDFATYYCQQANIFPLTFGGGTKVEIKRTVAAPSVFIFPPSDEQLKSGTASVVCLLNNFYPREAKVQWKVDNALQSGNSQESVTEQDSKDSTYSLSSTLTLSKADYEKHKVYACEVTHQGLSSPVTKSFNRGEC
binds | no binding (tested: 30 µg/mL) | binds | 383-huIgG4SP (antibody, anti-CD40 antibody 383 on a human IgG4 S228P constant region) heavy chain: not shown light chain: DIQMTQSPSSVSASVGDRVTITCRASQGIYSWLAWYQQKPGKAPNLLIYTASTLQSGVPSRFSGSGSGTDFTLTISSLQPEDFATYYCQQANIFPLTFGGGTKVEIKRTVAAPSVFIFPPSDEQLKSGTASVVCLLNNFYPREAKVQWKVDNALQSGNSQESVTEQDSKDSTYSLSSTLTLSKADYEKHKVYACEVTHQGLSSPVTKSFNRGEC
binds | no binding (tested: 30 µg/mL) | binds | 383-huIgG1m48 (antibody) heavy: not shown light: DIQMTQSPSSVSASVGDRVTITCRASQGIYSWLAWYQQKPGKAPNLLIYTASTLQSGVPSRFSGSGSGTDFTLTISSLQPEDFATYYCQQANIFPLTFGGGTKVEIKRTVAAPSVFIFPPSDEQLKSGTASVVCLLNNFYPREAKVQWKVDNALQSGNSQESVTEQDSKDSTYSLSSTLTLSKADYEKHKVYACEVTHQGLSSPVTKSFNRGEC
binds | no binding (tested: 30 µg/mL) | no binding (tested: 30 µg/mL) | 383-huIgG2G4 (antibody) heavy: not shown light: DIQMTQSPSSVSASVGDRVTITCRASQGIYSWLAWYQQKPGKAPNLLIYTASTLQSGVPSRFSGSGSGTDFTLTISSLQPEDFATYYCQQANIFPLTFGGGTKVEIKRTVAAPSVFIFPPSDEQLKSGTASVVCLLNNFYPREAKVQWKVDNALQSGNSQESVTEQDSKDSTYSLSSTLTLSKADYEKHKVYACEVTHQGLSSPVTKSFNRGEC
no binding (tested: 30 µg/mL) | no binding (tested: 30 µg/mL) | no binding (tested: 30 µg/mL) | 383-huIgG4m42 (antibody) heavy: not shown light: DIQMTQSPSSVSASVGDRVTITCRASQGIYSWLAWYQQKPGKAPNLLIYTASTLQSGVPSRFSGSGSGTDFTLTISSLQPEDFATYYCQQANIFPLTFGGGTKVEIKRTVAAPSVFIFPPSDEQLKSGTASVVCLLNNFYPREAKVQWKVDNALQSGNSQESVTEQDSKDSTYSLSSTLTLSKADYEKHKVYACEVTHQGLSSPVTKSFNRGEC
no binding (tested: 30 µg/mL) | no binding (tested: 30 µg/mL) | no binding (tested: 30 µg/mL) | 383-huIgG1m40 (antibody) heavy: not shown light: DIQMTQSPSSVSASVGDRVTITCRASQGIYSWLAWYQQKPGKAPNLLIYTASTLQSGVPSRFSGSGSGTDFTLTISSLQPEDFATYYCQQANIFPLTFGGGTKVEIKRTVAAPSVFIFPPSDEQLKSGTASVVCLLNNFYPREAKVQWKVDNALQSGNSQESVTEQDSKDSTYSLSSTLTLSKADYEKHKVYACEVTHQGLSSPVTKSFNRGEC
binds | no binding (tested: 30 µg/mL) | no binding (tested: 30 µg/mL) | 383-huIgG2mAA (antibody) heavy: not shown light: DIQMTQSPSSVSASVGDRVTITCRASQGIYSWLAWYQQKPGKAPNLLIYTASTLQSGVPSRFSGSGSGTDFTLTISSLQPEDFATYYCQQANIFPLTFGGGTKVEIKRTVAAPSVFIFPPSDEQLKSGTASVVCLLNNFYPREAKVQWKVDNALQSGNSQESVTEQDSKDSTYSLSSTLTLSKADYEKHKVYACEVTHQGLSSPVTKSFNRGEC
binds | no binding (tested: 30 µg/mL) | binds | 383-huIgG1 N297A (antibody, the entry already carries the change) heavy: not shown light: DIQMTQSPSSVSASVGDRVTITCRASQGIYSWLAWYQQKPGKAPNLLIYTASTLQSGVPSRFSGSGSGTDFTLTISSLQPEDFATYYCQQANIFPLTFGGGTKVEIKRTVAAPSVFIFPPSDEQLKSGTASVVCLLNNFYPREAKVQWKVDNALQSGNSQESVTEQDSKDSTYSLSSTLTLSKADYEKHKVYACEVTHQGLSSPVTKSFNRGEC
